Assay results reported in patent US20220389118A1 (Chugai, published 2022).
Where two headings read alike, the source gives them in different places. Blank lines part the entries; values can stand above or below the binder they belong to.

Assays:
[1] = molecular target: T1, human FcγRIIa type R (allotype R131) extracellular domain with C-terminal His tag (human, UniProt P12318 34-217); test: SPR (Biacore), antibody captured, FcγR analyte
T1 construct: extracellular domain; also called FcγRIIaR; FcγRIIa R type; not shown: His tag at the C terminus
T1 sequence (looked up): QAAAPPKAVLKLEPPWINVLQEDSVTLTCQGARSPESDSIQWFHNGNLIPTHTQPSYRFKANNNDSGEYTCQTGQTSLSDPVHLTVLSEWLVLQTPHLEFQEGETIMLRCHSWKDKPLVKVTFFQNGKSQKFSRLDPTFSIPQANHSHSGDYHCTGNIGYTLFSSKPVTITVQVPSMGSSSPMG

[2] = molecular target: T2, human FcγRIa extracellular domain with C-terminal His tag (human, UniProt P12314 16-292); test: SPR (Biacore), antibody captured, FcγR analyte
T2 construct: not shown: His tag at the C terminus

[3] = molecular target: T3, human FcγRIIa type H (H131) extracellular domain with C-terminal His tag (human, UniProt P12318 34-217); test: SPR (Biacore), antibody captured, FcγR analyte
T3 construct: extracellular domain; also called FcγRIIaH; not shown: His tag at the C terminus
T3 sequence (looked up): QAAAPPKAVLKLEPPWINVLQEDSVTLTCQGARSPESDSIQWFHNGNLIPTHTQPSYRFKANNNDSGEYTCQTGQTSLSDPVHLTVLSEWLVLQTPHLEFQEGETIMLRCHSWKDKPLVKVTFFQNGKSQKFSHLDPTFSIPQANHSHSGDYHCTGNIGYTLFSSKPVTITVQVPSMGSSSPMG

[4] = molecular target: T4, human FcγRIIa type R (R131) extracellular domain with C-terminal His tag (human, UniProt P12318 34-217); test: SPR (Biacore), antibody captured, FcγR analyte
T4 construct: extracellular domain; also called FcγRIIaR; not shown: His tag at the C terminus
T4 sequence (looked up): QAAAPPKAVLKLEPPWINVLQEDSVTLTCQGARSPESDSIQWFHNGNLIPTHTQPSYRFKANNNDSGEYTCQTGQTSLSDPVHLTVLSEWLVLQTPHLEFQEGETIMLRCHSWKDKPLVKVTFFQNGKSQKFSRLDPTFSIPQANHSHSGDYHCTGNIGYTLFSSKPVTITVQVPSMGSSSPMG

[5] = molecular target: T2, human FcγRIa extracellular domain with …; test: SPR (Biacore), antibody captured, FcγR analyte; remark: listed apart in the source
[6] = molecular target: T5, human FcγRIIIa type V (V158) extracellular domain with C-terminal His tag (human, UniProt P08637 17-208); test: SPR (Biacore), antibody captured, FcγR analyte
T5 construct: extracellular domain; also called FcγRIIIaV; not shown: His tag at the C terminus

[7] = molecular target: T6, human FcγRIIb extracellular domain with C-terminal His tag (human, UniProt P31994 43-217); test: SPR (Biacore), antibody captured, FcγR analyte
T6 construct: extracellular domain; not shown: His tag at the C terminus
T6 sequence (looked up): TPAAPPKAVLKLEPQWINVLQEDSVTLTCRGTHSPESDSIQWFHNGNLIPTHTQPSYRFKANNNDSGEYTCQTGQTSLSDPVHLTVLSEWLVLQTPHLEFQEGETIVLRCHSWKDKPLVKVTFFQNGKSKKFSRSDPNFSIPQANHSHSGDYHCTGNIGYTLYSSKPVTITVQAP

[8] = molecular target: T7, human FcγRIIa type R extracellular domain with C-terminal His tag (human, UniProt P12318 34-217); test: SPR, Ref. Ex. 25
T7 construct: extracellular domain; also called FcγRIIaR; FcγRIIa R
T7 sequence (looked up): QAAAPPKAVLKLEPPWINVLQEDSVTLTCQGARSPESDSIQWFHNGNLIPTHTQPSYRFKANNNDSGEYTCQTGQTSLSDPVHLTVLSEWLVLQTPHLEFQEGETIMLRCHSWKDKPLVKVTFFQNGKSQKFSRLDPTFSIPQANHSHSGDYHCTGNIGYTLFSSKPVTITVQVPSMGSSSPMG

[9] = molecular target: T8, human FcγRIIa type H extracellular domain with C-terminal His tag (human, UniProt P12318 34-217); test: SPR, Ref. Ex. 25
T8 construct: extracellular domain; also called FcγRIIaH; FcγRIIa H
T8 sequence (looked up): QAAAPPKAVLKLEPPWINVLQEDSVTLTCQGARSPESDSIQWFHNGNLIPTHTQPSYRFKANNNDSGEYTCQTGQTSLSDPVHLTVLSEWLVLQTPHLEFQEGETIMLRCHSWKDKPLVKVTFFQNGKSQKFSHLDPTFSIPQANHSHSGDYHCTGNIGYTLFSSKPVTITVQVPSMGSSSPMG

[10] = molecular target: T9, human FcγRIIIa type V extracellular domain with C-terminal His tag (human, UniProt P08637 17-208); test: SPR, Ref. Ex. 25
T9 construct: extracellular domain; also called FcγRIIIaV; FcγRIIIa V type
T9 sequence (P08637 17-208 F176V): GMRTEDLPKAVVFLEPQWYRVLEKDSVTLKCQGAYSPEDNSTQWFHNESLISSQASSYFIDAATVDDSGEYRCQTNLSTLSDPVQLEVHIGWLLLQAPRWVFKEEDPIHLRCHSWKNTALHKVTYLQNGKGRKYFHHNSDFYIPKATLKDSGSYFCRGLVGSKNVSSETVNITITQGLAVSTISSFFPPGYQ

T2 sequence (P12314 16-292): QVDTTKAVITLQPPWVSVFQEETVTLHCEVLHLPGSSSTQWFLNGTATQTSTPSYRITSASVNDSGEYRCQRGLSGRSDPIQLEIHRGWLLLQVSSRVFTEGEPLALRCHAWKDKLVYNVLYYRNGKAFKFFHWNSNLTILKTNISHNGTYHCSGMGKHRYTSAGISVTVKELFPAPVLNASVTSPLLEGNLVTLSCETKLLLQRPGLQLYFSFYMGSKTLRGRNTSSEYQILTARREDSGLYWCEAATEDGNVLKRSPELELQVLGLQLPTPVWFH
T5 sequence (P08637 17-208 F176V): as the sequence (P08637 17-208 F176V) above

B1: IL6R-BP223/IL6R-L (antibody, human IgG1, kappa)
heavy: QVQLQESGPGLVKPSETLSLTCAVSGHSISHDHAWSWVRQPPGEGLEWIGFISYSGITNYNPSLQGRVTISRDNSKNTLYLQMNSLRAEDTAVYYCARSLARTTAMDYWGEGTLVTVSSASTKGPSVFPLAPSSKSTSGGTAALGCLVKDYFPEPVTVSWNSGALTSGVHTFPAVLQSSGLYSLSSVVTVPSSSLGTQTYICNVNHKPSNTKVDKKVEPKSCDKTHTCPPCPAPEYLGDDSVFLFPPKPKDTLMISRTPEVTCVVVDVSDEDGEVKFNWYVDGVEVHNAKTKPREEQYNSTYRVVSVLTVLHQDWLNGKEYKCKVSNAALPRPIEKTISKAKGQPREPQVYTLPPSRDELTKNQVSLTCLVKGFYPSDIAVEWESNGQPENNYKTTPPVLDSDGSFFLYSKLTVDKSRWQQGNVFSCSVMHEALHNHYTQESLSLSP
light: not shown
notes: copies: 2 + 2
- Kd [1]: 0.6 µM

B2: IL6R-BP384/IL6R-L (antibody, human IgG1, kappa)
heavy: QVQLQESGPGLVKPSETLSLTCAVSGHSISHDHAWSWVRQPPGEGLEWIGFISYSGITNYNPSLQGRVTISRDNSKNTLYLQMNSLRAEDTAVYYCARSLARTTAMDYWGEGTLVTVSSASTKGPSVFPLAPSSKSTSGGTAALGCLVKDYFPEPVTVSWNSGALTSGVHTFPAVLQSSGLYSLSSVVTVPSSSLGTQTYICNVNHKPSNTKVDKKVEPKSCDKTHTCPPCPAPDLLGDDSVFLFPPKPKDTLMISRTPEVTCVVVDVSDEDGEVKFNWYVDGVEVHNAKTKPREEQDNSTYRVVSVLTVLHQDWLNGKEYKCKVSNKALPRPIERTISKAKGQPREPQVYTLPPSRDELTKNQVSLTCLVKGFYPSDIAVEWESNGQPENNYKTTPPVLDSDGSFFLYSKLTVDKSRWQQGNVFSCSVMHEALHNHYTQESLSLSP
light: not shown
notes: K334R introduced into IL6R-BP230; copies: 2 + 2
- Kd [2]: 0.003 µM

B4: IL6R-BP469/IL6R-L (antibody, human IgG1, kappa)
heavy: QVQLQESGPGLVKPSETLSLTCAVSGHSISHDHAWSWVRQPPGEGLEWIGFISYSGITNYNPSLQGRVTISRDNSKNTLYLQMNSLRAEDTAVYYCARSLARTTAMDYWGEGTLVTVSSASTKGPSVFPLAPSSKSTSGGTAALGCLVKDYFPEPVTVSWNSGALTSGVHTFPAVLQSSGLYSLSSVVTVPSSSLGTQTYICNVNHKPSNTKVDKKVEPKSCDKTHTCPPCPAPDLLGDDSVFLFPPKPKDTLMISRTPEVTCVVVDVSDEDGEVKFNWYVDGVEVHNAKTKPREEQDNSTYRVVSVLTVLHQDWLNGKEYKCKVSNKALPRPISKTISKAKGQPREPQVYTLPPSRDELTKNQVSLTCLVKGFYPSDIAVEWESNGQPENNYKTTPPVLDSDGSFFLYSKLTVDKSRWQQGNVFSCSVMHEALHNHYTQESLSLSP
light: not shown
notes: E333S introduced into IL6R-BP230; copies: 2 + 2
- Kd [4]: 0.6 µM

B6: IL6R-BP462/IL6R-L (antibody, human IgG1, kappa)
heavy: QVQLQESGPGLVKPSETLSLTCAVSGHSISHDHAWSWVRQPPGEGLEWIGFISYSGITNYNPSLQGRVTISRDNSKNTLYLQMNSLRAEDTAVYYCARSLARTTAMDYWGEGTLVTVSSASTKGPSVFPLAPSSKSTSGGTAALGCLVKDYFPEPVTVSWNSGALTSGVHTFPAVLQSSGLYSLSSVVTVPSSSLGTQTYICNVNHKPSNTKVDKKVEPKSCDKTHTCPPCPAPDLLGDDSVFLFPPKPKDTLMISRTPEVTCVVVDVAEEDGEVKFNWYVDGVEVHNAKTKPREEQYNSTYRVVSVLTVLHQDWLNGKEYKCKVSNKALPRPIEKTISKAKGQPREPQVYTLPPSRDELTKNQVSLTCLVKGFYPSDIAVEWESNGQPENNYKTTPVVLDSDGSFFLYSKLTVDKSRWQQGNVFSCSVMHEALHNHYTQESLSLSP
light: not shown
notes: P396V introduced into IL6R-BP423; copies: 2 + 2
- Kd [6]: 9 µM

B8: IL6R-PD087/IL6R-L (antibody, human IgG1, kappa)
heavy: QVQLQESGPGLVKPSETLSLTCAVSGHSISHDHAWSWVRQPPGEGLEWIGFISYSGITNYNPSLQGRVTISRDNSKNTLYLQMNSLRAEDTAVYYCARSLARTTAMDYWGEGTLVTVSSASTKGPSVFPLAPSSKSTSGGTAALGCLVKDYFPEPVTVSWNSGALTSGVHTFPAVLQSSGLYSLSSVVTVPSSSLGTQTYICNVNHKPSNTKVDKKVEPKSCDKTHTCPPCPAPELLGMDSVFLFPPKPKDTLYISRTPEVTCVVVDVSHEDPEVKFNWYVDGVEVHNAKTKPREEQYNSTYRVVSVLTVLHQDWLNGKEYKCKVSNKALPAPIEKTISKAKGQPREPQVYTLPPSRDELTKNQVSLTCLVKGFYPSDIAVEWESNGQPENNYKTTPPVLDSDGSFFLYSKLTVDKSRWQQGNVFSCSVMHEALHYHYTQKSLSLSP
light: not shown
notes: also called P238D/G237M; G237M/P238D; copies: 2 + 2
- Kd [8]: 22 µM
- Kd [9]: 20 µM
- Kd [10]: 37 µM

Continued, values first:

- Kd [3]: 10 µM
B3: IL6R-BP470/IL6R-L (antibody, human IgG1, kappa)
heavy: QVQLQESGPGLVKPSETLSLTCAVSGHSISHDHAWSWVRQPPGEGLEWIGFISYSGITNYNPSLQGRVTISRDNSKNTLYLQMNSLRAEDTAVYYCARSLARTTAMDYWGEGTLVTVSSASTKGPSVFPLAPSSKSTSGGTAALGCLVKDYFPEPVTVSWNSGALTSGVHTFPAVLQSSGLYSLSSVVTVPSSSLGTQTYICNVNHKPSNTKVDKKVEPKSCDKTHTCPPCPAPDLLGDDSVFLFPPKPKDTLMISRTPEVTCVVVDVSDEDGEVKFNWYVDGVEVHNAKTKPREEQDNSTYRVVSVLTVLHQDWLNGKEYKCKVSNKALPRPITKTISKAKGQPREPQVYTLPPSRDELTKNQVSLTCLVKGFYPSDIAVEWESNGQPENNYKTTPPVLDSDGSFFLYSKLTVDKSRWQQGNVFSCSVMHEALHNHYTQESLSLSP
light: not shown
notes: E333T introduced into IL6R-BP230; copies: 2 + 2

- Kd [5]: 0.004 µM
B5: IL6R-BP267/IL6R-L (antibody, human IgG1, kappa)
heavy: QVQLQESGPGLVKPSETLSLTCAVSGHSISHDHAWSWVRQPPGEGLEWIGFISYSGITNYNPSLQGRVTISRDNSKNTLYLQMNSLRAEDTAVYYCARSLARTTAMDYWGEGTLVTVSSASTKGPSVFPLAPSSKSTSGGTAALGCLVKDYFPEPVTVSWNSGALTSGVHTFPAVLQSSGLYSLSSVVTVPSSSLGTQTYICNVNHKPSNTKVDKKVEPKSCDKTHTCPPCPAPDLLGDDSVFLFPPKPKDTLMISRTPEVTCVVVDVSEEDGEVKFNWYVDGVEVHNAKTKPREEQYNSTYRVVSVLTVLHQDWLNGKEYKCKVSNKALPAPIEKTISKAKGQPREPQVYTLPPSRDELTKNQVSLTCLVKGFYPSDIAVEWESNGQPENNYKTTPPVLDSDGSFFLYSKLTVDKSRWQQGNVFSCSVMHEALHNHYTQESLSLSP
light: not shown
notes: alterations counted against IL6R-B3; copies: 2 + 2

- Kd [7]: 0.04 µM
B7: IL6R-BP468/IL6R-L (antibody, human IgG1, kappa)
heavy: QVQLQESGPGLVKPSETLSLTCAVSGHSISHDHAWSWVRQPPGEGLEWIGFISYSGITNYNPSLQGRVTISRDNSKNTLYLQMNSLRAEDTAVYYCARSLARTTAMDYWGEGTLVTVSSASTKGPSVFPLAPSSKSTSGGTAALGCLVKDYFPEPVTVSWNSGALTSGVHTFPAVLQSSGLYSLSSVVTVPSSSLGTQTYICNVNHKPSNTKVDKKVEPKSCDKTHTCPPCPAPDLLGDDSVFLFPPKPKDTLMISRTPEVTCVVVDVSDEDGEVKFNWYVDGVEVHNAKTKPREEQDNSTYRVVSVLTVLHQDWLNGKEYKCKVSNKALPRPIETTISKAKGQPREPQVYTLPPSRDELTKNQVSLTCLVKGFYPSDIAVEWESNGQPENNYKTTPPVLDSDGSFFLYSKLTVDKSRWQQGNVFSCSVMHEALHNHYTQESLSLSP
light: not shown
notes: copies: 2 + 2
